Results from patent publication US7645449B2, “Sensitizing cells for apoptosis by selectively blocking cytokines” (priority 2003, dated 2010).

Test system: primary breast carcinoma cells
Assay: Bcl-XL expression and chemosensitivity of primary breast carcinoma cells cultivated with or without IL-4
Type: cell-based, human
Settings: 6 days of in vitro culture in the presence of IL-4
Excerpt: To confirm that IL-4-induced upregulation of Bcl-XL is able to protect epithelial breast cells from apoptosis, freshly isolated normal breast epithelial cells were exposed to IL-4 and analyzed Bcl-XL expression and sensitivity to a panel of chemotherapeutic drugs commonly used to treat breast cancer. […] To confirm that in vivo exposure to IL-4 is responsible for high Bcl-XL expression and resistance to chemotherapy in breast cancer, Bcl-XL expression and sensitivity to apoptosis of primary breast carcinoma cells cultivated in the presence or absence of IL-4 was measured Freshly isolated breast cancer cells expressed high levels of Bcl-XL and were scarcely sensitive to chemotherapeutic drugs (FIGS. 14C and D). […] Thus, in vivo IL-4 production promotes the survival of breast cancer cells. […]
Cell pellets were washed twice with cold PBS and lysed on ice for 30 minutes with 1% NP40 lysis buffer (20 mM Tris-HCl pH 7.2, 200 mM NaCl, 1% NP40) in the presence of 1 mM phenylmethylsulphonyl fluoride (PMSF) and 2 μg/ml each of aprotinin, leupeptin and pepstatin. […] Lysate concentration was determined using the Bio-Rad protein assay (Bio-Rad Laboratories, Richmond, Calif.). […]

B1: IL-4: human recombinant IL-4 (protein, UniProt P05112 25-153, looked up)
Interleukin-4: HKCDITLQEIIKTLNSLTEQKTLCTELTVTDIFAASKNTTEKETFCRAATVLRQFYSHHEKDTRCLGATAQQFHRHKQLIRFLKRLDRNLWGLAGLNSCPVKEANQSTLENFLERLKTIMREKYSKCSS
**Q.** Which “Bcl-XL levels in primary breast cancer cells” value does the source give for B1 here?
**A.** The value was “maintained high Bcl-XL levels”.

**Q.** What about the “sensitivity of primary breast cancer cells to chemotherapeutic drugs” value of the same molecule?
**A.** Its value is “low sensitivity to chemotherapeutic drugs”.
